Results reported in patent US20120014885A1 (DANISCO US, published 2012).
Ends that are not written are not given here.

How the values were obtained:
BSA [1] = biological target: T1, BSA (UniProt P02769 25-607); assay: phage ELISA, equivalent amounts of phage, anti-M13-HRP, ABTS, A405 after 30 min (n=3)
human VEGF165 [2] = biological target: T2, human VEGF165 (human, UniProt P15692-4 27-191); assay: SPR (BIAcore 3000), VEGF165 coupled to CM5, peptide injected, TNF-alpha reference lane; two state reaction model with conformation change; first step of the two state fit (ka1)
T2 construct: Bought protein; panning target, amine-coupled to CM5 chips for BIAcore, coated on plates; also called hVEGF165; hVEGF
T2 sequence (P15692 other isoform, or with tags, fused parts or gaps limits assumed): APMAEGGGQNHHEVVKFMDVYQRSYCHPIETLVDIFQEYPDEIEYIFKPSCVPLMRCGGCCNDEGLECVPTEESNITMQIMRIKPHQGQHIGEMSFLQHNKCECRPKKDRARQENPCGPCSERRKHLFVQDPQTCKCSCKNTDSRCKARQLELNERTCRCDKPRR

human VEGF165 [3] = biological target: T2, human VEGF165; assay: SPR (BIAcore 3000), VEGF165 coupled to CM5, peptide injected, TNF-alpha reference lane; two state reaction model with conformation change; overall KD of the two state fit
human VEGF165 [4] = biological target: T2, human VEGF165; assay: SPR (BIAcore 3000), VEGF165 coupled to CM5, peptide injected, TNF-alpha reference lane; two state reaction model with conformation change; first step of the two state fit (kd1)
human VEGF165 [5] = biological target: T2, human VEGF165; assay: bound beta-lactamase activity (nitrocefin, mOD/min) on hVEGF165 coated wells after washing
[6] = biological target: T3, VegF (PeproTech), labeled with biotin (UniProt P15692-4 27-191, limits assumed, biotin label (site not stated)); assay: ECL competition assay (BioVeris): biotinylated VegF on streptavidin beads, competitor ECL labeled Anti-VegF antibody
T3 construct: Captured on streptavidin coated beads in the BioVeris ECL assay; also called biotinylated VegF
T3 sequence (P15692 other isoform, or with tags, fused parts or gaps limits assumed): as above

BSA [7] = biological target: T1, BSA; assay: phage ELISA, anti-M13-HRP, ABTS, A405

T1 sequence (P02769 25-607 limits assumed): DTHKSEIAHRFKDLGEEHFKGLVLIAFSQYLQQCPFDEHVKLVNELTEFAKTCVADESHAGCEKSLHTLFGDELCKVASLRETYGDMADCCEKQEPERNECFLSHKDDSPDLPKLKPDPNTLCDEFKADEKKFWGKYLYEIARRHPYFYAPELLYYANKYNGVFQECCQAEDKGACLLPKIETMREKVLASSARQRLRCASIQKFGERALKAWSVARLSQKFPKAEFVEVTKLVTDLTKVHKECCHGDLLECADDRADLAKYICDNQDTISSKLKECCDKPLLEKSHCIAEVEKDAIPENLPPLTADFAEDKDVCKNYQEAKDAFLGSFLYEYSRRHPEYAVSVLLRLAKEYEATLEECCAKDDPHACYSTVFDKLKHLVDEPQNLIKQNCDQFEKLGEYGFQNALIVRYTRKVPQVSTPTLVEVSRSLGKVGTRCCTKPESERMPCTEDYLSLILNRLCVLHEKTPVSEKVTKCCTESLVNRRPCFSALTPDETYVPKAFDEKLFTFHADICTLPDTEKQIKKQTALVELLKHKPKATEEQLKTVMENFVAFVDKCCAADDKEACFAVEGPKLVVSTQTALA

B1: SEQ ID NO 1 (peptide)
peptide: YNLYGWT
notes: Clone of the PhD C7C library (NEB): the 7-mer stands between two cysteines on M13 phage; tested as whole phage; also called YNLYGWT
**Q.** Does B1 bind (BSA [1])?
**A.** Result: no binding

B2: SEQ ID NO 7 (peptide)
peptide: TLWPSYW
notes: tested as whole phage
**Q.** Does B2 bind (BSA [1])?
**A.** Result: no binding

B3: SEQ ID NO 2 (peptide)
peptide: TLWPTFW
notes: tested as whole phage
**Q.** Does B3 bind (BSA [1])?
**A.** Result: no binding

B4: SEQ ID NO 4 (peptide)
peptide: SLWPAFW
notes: tested as whole phage
**Q.** Does B4 bind (BSA [1])?
**A.** Result: no binding

B5: SEQ ID NO 13 (peptide)
peptide: HLAPSAV
notes: tested as whole phage
**Q.** Does B5 bind (BSA [1])?
**A.** Result: no binding

B6: biotinylated peptide CK37281 (peptide)
peptide: ACYNLYGWTC
modifications: cysteine pairing not given here; also: biotinylated (site not given here)
notes: Synthetic peptide (FMOC chemistry, SynPep)
**Q.** Which kon (human VEGF165 [2]) does the source give for B6 here?
**A.** The kon was 2840 M⁻¹ s⁻¹.

**Q.** What about the Kd (human VEGF165 [3]) of the same binder?
**A.** Its Kd is 1920 nM.

**Q.** And the koff (human VEGF165 [4])?
**A.** Its koff is 0.0122 s⁻¹.

B7: BLA (enzyme)
chain: TPVSEKQLAEVVANTITPLMKAQSVPGMAVAVIYQGKPHYYTFGKADIAANKPVTPQTLFELGSISKTFTGVLGGDAIARGEISLDDAVTRYWPQLTGKQWQGIRMLDLATYTAGGLPLQVPDEVTDNASLLRFYQNWQPQWKPGTTRLYANASIGLFGALAVKPSGMPYEQAMTTRVLKPLKLDHTWINVPKAEEAHYAWGYRDGKAVRVSPGMLDAQAYGVKTNVQDMANWVMANMAPENVADASLKQGIALAQSRYWRIGSMYQGLGWEMLNWPVEANTVVEGSDSKVALAPLPVAEVNPPAPPVKASWVHKTGSTGGFGSYVAFIPEKQIGIVMLANTSYPNPARVEAAYHILEALQHHHHHH
notes: also called pCB04; pCB04 (WT)
**Q.** Does B7 bind (human VEGF165 [5])?
**A.** Result: no binding (tested: about 40 uM)

B8: 2BBIck81 (designed binder)
chain: DDESSKPCCDQCACTKSNPPQCRCSDMRLNSCHSACKSCACYNLYGWTCFCVDITDFCYEPCKPSEDDKEN
notes: also called free 2BBIck81; 2BBlck81
**Q.** B8 was tested. Which “IC50 (read off the curve)” value [6] did it give?
**A.** The value was roughly 3000 nM.

B9: SEQ ID NO 3 (peptide)
peptide: NLWPHFW
notes: tested as whole phage
**Q.** Does B9 bind (BSA [1])?
**A.** Result: no binding

B10: SEQ ID NO 5 (peptide)
peptide: APWNSHI
notes: tested as whole phage
**Q.** Does B10 bind (BSA [1])?
**A.** Result: no binding

B11: SEQ ID NO 6 (peptide)
peptide: APWNLHI
notes: tested as whole phage
**Q.** Does B11 bind (BSA [7])?
**A.** Result: no binding
